Laboratory results: paper PMC3582033 (Cell, 2011)

Assays:
[1] = molecular target: H3(1-28) with acetylated K18 (UniProt P68431 2-29, acetyl-lysine at K18); assay: ITC
[2] = molecular target: H3(1-28)K9me3K18ac histone peptide (UniProt P68431 2-29, trimethyl-lysine at K9; acetyl-lysine at K18); assay: ITC

B1: TRIM33 PHD-Bromo cassette (domain or fragment)
chain: DDDPNEDWCAVCQNGGDLLCCEKCPKVFHLTCHVPTLLSFPSGDWICTFCRDIGKPEVEYDCDNLQHSKKGKTAQGLSPVDQRKCERLLLYLYCHELSIEFQEPVPASIPNYYKIIKKPMDLSTVKKKLQKKHSQHYQIPDDFVADVRLIFKNCERFNEMMKVVQVYADTQEINLKADSEVAQAGKAVALYFEDKLTEIYSDRTFA
fold enhancement of binding over unmodified H3(1-28) [1]: 2.3 fold | fold enhancement of binding over unmodified H3(1-28) [2]: 3.5 fold
